Data on seven proteins can be found in article PMC9630130, “Molecular interactions of FG nucleoporin repeats at high resolution” (Nature Chemistry, 2022).

Data set [1] deals with the molecule itself. The data set is described as follows: cryo-EM structure; amyloid fibrils of Nup98^FG85: peptide dissolved in pure water at 1.5 mM, incubated at 25 °C for 1 h; helical reconstruction of four polymorphs (pm1-pm4).
Data set [2] concerns the molecule itself. The data set is described as follows: time-dependent loss of NMR signal (self-association/aggregation); synthetic Nup98 peptides alone in solution; propensity = difference between the NMR signal expected for the peptide concentration and that observed after 1 day of incubation at 5 °C (Fig. 2c); kinetics of 95-124 and its mutants in Supplementary Fig. 5.
Data set [3] deals with the molecule itself. The data set is described as follows: aggregation of NMR assignment samples; 2 mM peptide in 50 mM sodium phosphate, 0.01% NaN3, 5% D2O, pH 6.8; NMR at 5 °C.
Data set [4] deals with the molecule itself. The experiment in a line: loss of 1D 1H NMR signal on change of pH; Nup98^FG (200 μM) or Nup98^FG85 (100 μM) in 50 mM sodium phosphate, 1 mM TCEP, 0.01% NaN3, 5% D2O; pH 3, adjusted to pH 7, then back to pH 3 and 30 min at 65 °C.

B1: Nup98^FG85 (residues 85–124 of human Nup98) (peptide, UniProt P52948 85-124, looked up)
peptide: TGTANTLFGTASTGTSLFSSQNNAFAQNKPTGFGNFGTST
notes: It forms amyloid fibrils of indefinite length with 3 (pm1) or 2 (pm2-pm4) protofilaments; also called Nup98^FG85 segment; source: synthetic peptide (solid-phase synthesis, Genscript)
For the protein B1, in data set [1], the binding result is listed as “binds”.

B2: Nup98(95–124) peptide (peptide, UniProt P52948 95-124, looked up)
peptide: Ac-ASTGTSLFSSQNNAFAQNKPTGFGNFGTST-NH2
notes: source: synthetic peptide (solid-phase synthesis, Genscript)
Turning to B2, the binding result in data set [2] is reported as “binds”.

B3: Nup98(95–124) peptide with Q105 and Q111 replaced by serine (peptide, UniProt P52948 95-124, looked up)
peptide: ASTGTSLFSSSNNAFASNKPTGFGNFGTST
notes: also called glutamine-to-serine mutant peptide; source: synthetic peptide (solid-phase synthesis, Genscript)
For the protein B3, the binding result in data set [2] was “binds”.

B4: Nup98(345–384) peptide (peptide, UniProt P52948 345-384, looked up)
peptide: Ac-TGTGLFGQTNTGFGAVGSTLFGNNKLTTFGSSTTSAPSFG-NH2
notes: human nucleoporin 98 (Nup98), residues 345-384; source: synthetic peptide (solid-phase synthesis, Genscript)
Turning to B4, the binding result in data set [3] was “binds”.

B5: Nup98(298–327) peptide (peptide, UniProt P52948 298-327, looked up)
peptide: Ac-TGFSFGNTSTIGQPSTNTMGLFGVTQASQP-NH2
notes: human nucleoporin 98 (Nup98), residues 298-327; source: synthetic peptide (solid-phase synthesis, Genscript)
In the case of B5, the binding result in data set [3] is listed as “binds”.

B6: Nup98(95–124) peptide with F117 and F120 replaced by serine (peptide, UniProt P52948 95-124, looked up)
peptide: ASTGTSLFSSQNNAFAQNKPTGSGNSGTST
notes: also called phenylalanine-to-serine mutant peptide; source: synthetic peptide (solid-phase synthesis, Genscript)
On to B6, for which the binding result in data set [2] is reported as “binds”.

B7: FG-repeat domain of human Nup98 (Nup98^FG, residues 1–384) (domain or fragment, UniProt P52948 1-384, looked up)
chain: MFNKSFGTPFGGGTGGFGTTSTFGQNTGFGTTSGGAFGTSAFGSSNNTGGLFGNSQTKPGGLFGTSSFSQPATSTSTGFGFGTSTGTANTLFGTASTGTSLFSSQNNAFAQNKPTGFGNFGTSTSSGGLFGTTNTTSNPFGSTSGSLFGPSSFTAAPTGTTIKFNPPTGTDTMVKAGVSTNISTKHQCITAMKEYESKSLEELRLEDYQANRKGPQNQVGAGTTTGLFGSSPATSSATGLFSSSTTNSGFAYGQNKTAFGTSTTGFGTNPGGLFGQQNQQTTSLFSKPFGQATTTQNTGFSFGNTSTIGQPSTNTMGLFGVTQASQPGGLFGTATNTSTGTAFGTGTGLFGQTNTGFGAVGSTLFGNNKLTTFGSSTTSAPSFG
notes: human nucleoporin 98 (Nup98), amino-terminal 384 residues (FG-repeat domain), in pET28a between NheI and XhoI; The methods describe no step that cleaves the His tag; also called 384-residue Nup98^FG domain; source: E. coli BL21(DE3), purified from the pellet in urea (Ni-NTA, two SEC steps)
In the case of B7, the binding result in data set [4] is given as “binds”.
